{"source": "paper PMC11363321", "tested_on": "Deoxymab-3 (DX3), humanized 3E10 antinuclear IgG1 (humanized (3E10 CDRs from MRL/lpr mouse on human IgG1 framework))", "test": "SPR", "conditions": "1:1 kinetic fit, SPR Biacore T200, CM5 chip with neutravidin, biotinylated ssDNA (0.025 uM) immobilized, DX3 in PBS pH 7.4, contact 120 s, dissociation 400 s, temperature not …"}
{"substance": "30-mer single-stranded DNA oligonucleotide", "values": [{"measurement": "Kd", "setting": "experiment 1, DX3 titrated from 500 nM", "value": 113, "unit": "nM"}, {"measurement": "Kd", "setting": "experiment 2 (replicate)", "value": 112, "unit": "nM"}]}
